Measurements from publication PMC7605441.

B1: wild-type murine RAD51AP1 fused to mCherry [mouse] / murine RAD51 with a C-terminal EGFP tag [mouse] (parent)
chain 1: MVRPTRNRKPINYSQFEDSGNDSDDDFISSSTPVNKSKTVPKVLKQDKPKPNLKNLQKEEVLPTEPPKKRVALDDKVFQRGLEVALALSVKELPTLTNQVKKSKEKSTDKQGKEKTENTGKPPRVSNCSVASDDVEDLDKITEEGDASSVEGERKSPSQAKAPRRRAPSEGSDGSSANDTESESATGEGSESDPDFDESKESDEDFGVRRSKESKKKTVQKKPAGEKKERKSKPKCEASVTSVDPAPAAIKSGSPSLPQAVGLPSEATRKPAIMCSPSAESKRPKWVPPAASGSRNSSSNALAGTPAKSPSQSLRLGLSRLAPVKRLHPSATSSQVR
chain 2: MAMQMQLEASADTSVEEESFGPQPISRLEQCGINANDVKKLEEAGYHTVEAVAYAPKKELINIKGISEAKADKILTEAAKLVPMGFTTATEFHQRRSEIIQITTGSKELDKLLQGGIETGSITEMFGEFRTGKTQICHTLAVTCQLPIDRGGGEGKAMYIDTEGTFRPERLLAVAERYGLSGSDVLDNVAYARGFNTDHQTQLLYQASAMMVESRYALLIVDSATALYRTDYSGRGELSARQMHLARFLRMLLRLADEFGVAVVITNQVVAQVDGAAMFAADPKKPIGGNIIAHASTTRLYLRKGRGETRICKIYDSPCLPEAEAMFAINADGVGDAKD

Variants of: B1
Test: co-immunoprecipitation (IP RAD51AP1, blot RAD51), band quantification
Conditions: asynchronous 293FT cells, transient co-expression, lane 9, parent: 1, read off a plot
chain 1 T305D S309D was tested, and the ratio to parent was 0.02.

Variants of: B1
Test: co-immunoprecipitation (IP GFP-RAD51, blot RAD51AP1), band quantification
Conditions: asynchronous 293FT cells, transient co-expression, lane 19, parent: 1, read off a plot
Work on chain 1 T305D S309D yielded a ratio to parent of 0.08.

Variants of: B1
Test: co-immunoprecipitation (IP RAD51AP1, blot RAD51), band quantification
Conditions: asynchronous 293FT cells, transient co-expression, lane 5, parent: 1, read off a plot
With chain 1 T305D the ratio to parent was 0.07.

Variants of: B1
Test: co-immunoprecipitation (IP GFP-RAD51, blot RAD51AP1), band quantification
Conditions: asynchronous 293FT cells, transient co-expression, lane 15, parent: 1, read off a plot
chain 1 T305D showed a ratio to parent of 0.32.

Variants of: B1
Test: co-immunoprecipitation (IP RAD51AP1, blot RAD51), band quantification
Conditions: asynchronous 293FT cells, transient co-expression, lane 8, parent: 1, read off a plot
Work on chain 1 T305A S309A yielded a ratio to parent of 0.95.

Variants of: B1
Test: co-immunoprecipitation (IP GFP-RAD51, blot RAD51AP1), band quantification
Conditions: asynchronous 293FT cells, transient co-expression, lane 18, parent: 1, read off a plot
In the case of chain 1 T305A S309A, the ratio to parent is reported as 0.45.

Variants of: B1
Test: co-immunoprecipitation (IP RAD51AP1, blot RAD51), band quantification
Conditions: asynchronous 293FT cells, transient co-expression, lane 7, parent: 1, read off a plot
chain 1 S309D gave a ratio to parent of 0.18.

Variants of: B1
Test: co-immunoprecipitation (IP GFP-RAD51, blot RAD51AP1), band quantification
Conditions: asynchronous 293FT cells, transient co-expression, lane 17, parent: 1, read off a plot
Work on chain 1 S309D yielded a ratio to parent of 0.57.

Variants of: B1
Test: co-immunoprecipitation (IP RAD51AP1, blot RAD51), band quantification
Conditions: asynchronous 293FT cells, transient co-expression, lane 6, parent: 1, read off a plot
For chain 1 S309A, the ratio to parent was 0.71.

Variants of: B1
Test: co-immunoprecipitation (IP GFP-RAD51, blot RAD51AP1), band quantification
Conditions: asynchronous 293FT cells, transient co-expression, lane 16, parent: 1, read off a plot
With chain 1 S309A the ratio to parent was 0.53.
